T1: OATP1A2 (Homo sapiens, UniProt P46721)
T1 sequence (P46721 whole entry): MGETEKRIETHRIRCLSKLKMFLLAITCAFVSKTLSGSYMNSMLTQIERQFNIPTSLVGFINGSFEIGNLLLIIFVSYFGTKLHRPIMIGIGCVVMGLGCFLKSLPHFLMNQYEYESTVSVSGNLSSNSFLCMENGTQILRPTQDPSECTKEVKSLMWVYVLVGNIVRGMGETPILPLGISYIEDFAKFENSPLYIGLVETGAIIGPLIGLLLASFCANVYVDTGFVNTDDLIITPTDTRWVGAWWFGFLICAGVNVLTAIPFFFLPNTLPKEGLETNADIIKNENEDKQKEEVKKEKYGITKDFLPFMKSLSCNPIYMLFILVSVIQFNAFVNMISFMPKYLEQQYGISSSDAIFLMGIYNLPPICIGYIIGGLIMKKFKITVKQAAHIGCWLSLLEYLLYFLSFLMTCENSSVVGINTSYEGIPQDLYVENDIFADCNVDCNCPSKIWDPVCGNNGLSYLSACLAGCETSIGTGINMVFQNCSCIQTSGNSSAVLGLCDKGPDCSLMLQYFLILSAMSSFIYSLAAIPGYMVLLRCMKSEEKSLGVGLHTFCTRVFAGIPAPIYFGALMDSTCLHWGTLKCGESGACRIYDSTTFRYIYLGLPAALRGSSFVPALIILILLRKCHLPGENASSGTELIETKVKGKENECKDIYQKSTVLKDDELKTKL

T2: Solute carrier organic anion transporter family member 1A2 (Homo sapiens, UniProt P46721)
T2 sequence (P46721 whole entry): T1 sequence (P46721 whole entry)

B1: Solute carrier organic anion transporter family member (Bos taurus) (protein)
chain: MGETEERIETHRIRCLSKLKMFLLAITCAFVSKTLSGSYMNSMITQIERQFNIPTSLVGFINGSFEIGNLLLIIFVSYFGTKLHRPIMIGVGCVVMGLGCFLQSLPHFLMGRYEYESTVSVSGNLSSNSFLCMENGTQIFKPTKDPSECVKEVKSLMWVYVLVGNIIRGIGETPIMPLGISYIEDFAKFENSPLYIGLIKTGGIIGPLIGLSLASFCANVYVDTESVNTDDLTITPSDTRWVGAWWIGFLICAGVNVLTAIPFFFLPKTLPKEGLEENAEIIKNDKEKQEDIKKKRDAITKDFLPFMKSLLCNPIYMLFILISVLQFNAFVSMVSFMPKYMEQHYGKSASEAIFLLGIYNFPPICIGYIVGGLFMKKFKITAVQAAHIGCWLSFTEYLLHFLCFFMICDSSSVAGLTTSYEGIHQNLRVKNFLADCNMDCNCPTKVWDPVCGNNGLSYTSACLAGCEISSGTGRKMVFQNCSCIQTPGNSSAVLGLCDKGKDCSMMLQYFLILSVFSSFIFSLSAIPGYMVLLRCVKPEEKSLGVGLHAFCTRVLAGIPAPIYFGALVDSTCLHWGTLKCGESGACRIYDSNSFRYIYLGIPAALRGSSYIPAFLILFILRKYRLPGENASSETMLVAKFTGKENEGKEMDQNAKVLNDDELKTKL

Experiments:
OATP1A2 [1] = biological target: T1, OATP1A2; experiment: (§1) Cellular uptake in HEK293 cells assessed as human OATP1A2-mediated drug uptake at 0.05 uM after 1 min by Eadie-Hofstee plot analysis; assay type: ADME, cell-based; conditions: HEK293 cells expressing human OATP1A2
[2] = biological target: T2, Solute carrier organic anion transporter family member 1A2; experiment: as §1; assay type: ADME, cell-based; conditions: hek293, 1 min, 0.05 µM
OATP1A2 [3] = biological target: T1, OATP1A2; experiment: Cellular uptake in Xenopus oocytes cells assessed as OATP1A2 (unknown origin)-mediated drug uptake; assay type: ADME, cell-based, Oocyte; conditions: Xenopus oocytes expressing OATP1A2
[4] = substrate: C[C@]12CC[C@@H]3c4ccc(OS(=O)(=O)O)cc4CC[C@H]3[C@@H]1CCC2=O; experiment: Cellular uptake in HEK293 cells assessed as bovine high affinity site of OATP1A2-mediated drug uptake at 0.01 to 50 uM after 1 min by Eadie-Hofstee plot analysis; assay type: ADME, cell-based, Bos taurus
[5] = substrate: C[C@]12CC[C@@H]3c4ccc(OS(=O)(=O)O)cc4CC[C@H]3[C@@H]1CCC2=O; experiment: Cellular uptake in HEK293 cells assessed as bovine low affinity site of OATP1A2-mediated drug uptake at 0.01 to 50 uM after 1 min by Eadie-Hofstee plot analysis; assay type: ADME, cell-based, Bos taurus

Row | Molecule | Km at 1 min (OATP1A2 [1]) [µM] | Vmax [2] [pmol/mg/min] | Km (OATP1A2 [3]) [µM] | Km [4] [µM] | Vmax [4] [µmol/min/mg] | Km [5] [µM] | Vmax [5] [µmol/min/mg]
1 | C[C@]12CC[C@@H]3c4ccc(OS(=O)(=O)O)cc4CC[C@H]3[C@@H]1CCC2=O [ESTRONE SULFURIC ACID] | 16.1 | 39.4 | 9.6 | – | – | – | –
2 | B1 | – | – | – | 0.25 | 2.45e-05 | 46.6 | 0.000375

From ChEMBL document CHEMBL3525993, “Identification of multiple binding sites for substrate transport in bovine organic anion transporting polypeptide 1a2” (Drug Metab Dispos, 2013)
